The numbers were not newly measured in PMC11698047, which cites them from elsewhere.

Usually Kd stands for the concentration at which binding is half-saturated.

Some targets named below: M-Ras (Homo sapiens) (UniProt O14807); Rap2 (Homo sapiens) (UniProt P10114); R-Ras (Homo sapiens) (UniProt P10301); TC21 (Homo sapiens) (UniProt P62070); Rap1 (Homo sapiens) (UniProt P62834).
Data set [1] deals with H-Ras (Homo sapiens) (UniProt P01112).
Data set [2] concerns the target Ras (Homo sapiens) (UniProt P01112).
Data set [3] shares this target. The source holds these as a separate data set.
In data set [4] the target is H-Ras (Homo sapiens) (UniProt P01112). This is another data set of the same source.

Read-outs that look alike come from different tables or passages of the source.

Sequence of Afadin RA1 (P55196 39-133): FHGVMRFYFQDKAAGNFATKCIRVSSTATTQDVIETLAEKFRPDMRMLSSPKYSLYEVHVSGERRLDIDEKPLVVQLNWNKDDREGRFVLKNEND
Sequence of Afadin RA1 without N-terminal α-helix (P55196 39-133): as above
Sequence of Afadin RA1 with N-terminal α-helix (P55196 1-141): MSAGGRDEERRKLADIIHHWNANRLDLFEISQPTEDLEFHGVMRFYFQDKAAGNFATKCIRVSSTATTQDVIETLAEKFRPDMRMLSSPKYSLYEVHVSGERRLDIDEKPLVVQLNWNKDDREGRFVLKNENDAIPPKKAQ
Sequence of Rap2 (Homo sapiens) (P10114 1-180): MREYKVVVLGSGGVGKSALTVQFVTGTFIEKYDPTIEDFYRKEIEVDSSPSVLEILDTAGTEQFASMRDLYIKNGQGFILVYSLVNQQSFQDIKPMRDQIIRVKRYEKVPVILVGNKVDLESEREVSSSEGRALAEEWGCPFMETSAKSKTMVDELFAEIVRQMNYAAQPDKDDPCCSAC
Sequence of R-Ras (Homo sapiens) (P10301 1-215): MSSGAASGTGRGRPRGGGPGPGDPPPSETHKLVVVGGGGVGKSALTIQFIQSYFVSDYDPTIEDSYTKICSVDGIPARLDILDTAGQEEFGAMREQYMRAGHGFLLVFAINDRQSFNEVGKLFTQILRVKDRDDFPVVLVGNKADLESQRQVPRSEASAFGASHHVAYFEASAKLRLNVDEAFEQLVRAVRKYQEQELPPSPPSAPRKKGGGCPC
Sequence of TC21 (Homo sapiens) (P62070 2-201): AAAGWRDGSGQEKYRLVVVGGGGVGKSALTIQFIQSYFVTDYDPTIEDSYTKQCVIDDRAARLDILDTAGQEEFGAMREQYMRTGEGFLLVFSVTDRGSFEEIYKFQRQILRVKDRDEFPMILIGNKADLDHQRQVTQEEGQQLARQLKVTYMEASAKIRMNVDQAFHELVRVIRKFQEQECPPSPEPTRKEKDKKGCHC
Sequence of Rap1 (Homo sapiens) (P62834 1-181): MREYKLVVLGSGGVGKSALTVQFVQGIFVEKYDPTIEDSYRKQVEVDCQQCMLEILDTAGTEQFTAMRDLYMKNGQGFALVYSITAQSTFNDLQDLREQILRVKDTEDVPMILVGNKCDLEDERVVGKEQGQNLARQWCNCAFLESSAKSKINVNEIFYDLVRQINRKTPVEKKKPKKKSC
Sequence of Afadin RA2 (P55196 246-348): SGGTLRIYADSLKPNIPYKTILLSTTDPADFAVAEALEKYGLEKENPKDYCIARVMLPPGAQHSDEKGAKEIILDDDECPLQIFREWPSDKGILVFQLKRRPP

Take Afadin RA2 (from UniProt P55196): in the data set with H-Ras (Homo sapiens) [1], the Kd is 30 µM.

Take “Afadin RA1 without N-terminal α-helix (from UniProt P55196)”: the Kd in the data set with Ras (Homo sapiens) [2] is 17.8 µM.

For the substance “Afadin RA1 with N-terminal α-helix (from UniProt P55196)”, the Kd in the data set with Ras (Homo sapiens) [3] is 4.1 µM.

For Afadin RA1 (from UniProt P55196), the Kd was 2.5 µM in the data set with M-Ras (Homo sapiens); 2.5 µM with H-Ras (Homo sapiens) [4]; 2.5 µM with Rap2 (Homo sapiens); 16 µM with R-Ras (Homo sapiens); 16 µM with TC21 (Homo sapiens); 0.24 µM in the data set with Rap1 (Homo sapiens).
